In patent publication US20230151373A1, “CHIMERIC POLYPEPTIDE FOR REGULATING IMMUNE CELLS” (STICHTING HET NEDERLANDS KANKER INSTITUUT-ANTONI VAN …, priority 2019, published 2023):

Test system: primary human T cells modified with the HLA class I restricted CDK4 TCR
Assay: Cytokine release and degranulation assay, CDK4 TCR T cells co-cultured with CDK4 peptide loaded T2 cells
Type: cell-based
Experimental: For use as T cell targets, T2 and CBH 5477 cells were loaded with the indicated concentrations of HLA-A*02:01 restricted mutant CDK4 peptide (ALDPHSGHFV), HLA A*02:01 restricted NY-ESO-1 peptide (SLLMWITQA), or HLA-DR1 restricted CMV peptide (KYQEFFWDANDIYRI) in IMDM for 1 hour at 37° C. Cells were then washed once and used in co-culture experiments.
T cells and NK cells were pretreated with the indicated concentrations of asunaprevir (MedChemExpress, #HY-14434), grazoprevir (MedChemExpress, #HY-15298), dTAG-13 (Tocris, #6605) or DMSO control in T cell media (RPMI/10% human serum/penicillin-streptomycin, 100 IU/ml IL2 and 5 ng/ml IL15) or NK cell media (RPMI/8% FCS/penicillin-streptomycin, 500 IU/ml IL2), respectively, for 24 hours before co-culture experiments. 100,000 T cells or NK cells and 100,000 of indicated tumor cells were mixed in T cell or NK cell media supplemented with golgi-plug (1:1000 dilution, BD, #51-2301KZ) and anti-LAMP1-APC (1:100 dilution, Biolegend, #328620) in the presence of indicated drugs or DMSO control in 96-well plates and incubated for 5 hours at 37° C.
After incubation, cells were washed once with PBS and stained with IR dye (Invitrogen, #L34976) at 1:400 dilution for 5 minutes at 4° C. Subsequently, cells were washed once with FACS buffer (PBS plus 0.5% BSA) and stained with anti-CD8-PerCP Cy5.5 (1:20 dilution, BD, #341050), anti-CD4 BV711 (1:50 dilution, Biolegend, #317440), anti-murine constant TCR-PE (in experiments with transduced TCRs, 1:200 dilution, BD, #553172) or cetuximab-PE (in experiments with transduced CAR construct containing truncated human EGFR reporter, 1:200 dilution, R&D Systems, #FAB9577P) for 20 minutes at 4° C. Cells were then washed once with FACS buffer and fixed with BD fixation and permeabilization solution (#51-2090KZ) for 20 minutes at 4° C.
Following permeabilization, cells were washed twice with BD perm/wash buffer (#51-2091KZ) and stained with anti-IFNγ-BV421 (1:100 dilution, BD, #564791), anti-IL-2-PE-Cy7 (1:100 dilution, BD, #560707) and anti-TNFα-BV650 (1:100 dilution, Biolegend, #502938) diluted in perm/wash buffer for 20 min at 4° C. Cells were then washed twice, resuspended in 100 μl FACS buffer and analyzed directly on a Fortessa Special Order analyzer. Data were analyzed using FlowJo and Prism 7 software.

[1] = T cells co-cultured with 10 nM peptide loaded T2 tumor cells, relative to vector control

Molecule	effect of construct expression on T cell cytokine production and degranulation (no drug, T2 cells loaded with CDK4 neoantigen)	reduction in percentage responding cells, IFNγ [1] [fold]	reduction in percentage responding cells, IL-2 [1] [fold]	reduction in percentage responding cells, TNFα [1] [fold]	reduction in percentage responding cells, cell surface LAMP1 [1] [fold]
Zap70 2×SH2: the Zap70 SH2 domains without inhibitory tail; human Zap70 (P43403, 1-264 aa) (protein, UniProt P43403 1-264, looked up, fragment) MPDPAAHLPFFYGSISRAEAEEHLKLAGMADGLFLLRQCLRSLGGYVLSLVHDVRFHHFPIERQLNGTYAIAGGKAHCGPAELCEFYSRDPDGLPCNLRKPCNRPSGLEPQPGVFDCLRDAMVRDYVRQTWKLEGEALEQAIISQAPQVEKLIATTAHERMPWYHSSLTREEAERKLYSGAQTDGKFLLRPRKEQGTYALSLIYGKTVYHYLISQDKAGKYCIPEGTKFDTLWQLVEYLKLKADGLIYCLKEACPNSSASNASG	modest inhibition of T cell functions				
Zap70-PD1: human Zap70 fragment (1-264 aa), a GGS linker, the human PD1 intracellular domain (192-288 aa) (protein) MPDPAAHLPFFYGSISRAEAEEHLKLAGMADGLFLLRQCLRSLGGYVLSLVHDVRFHHFPIERQLNGTYAIAGGKAHCGPAELCEFYSRDPDGLPCNLRKPCNRPSGLEPQPGVFDCLRDAMVRDYVRQTWKLEGEALEQAIISQAPQVEKLIATTAHERMPWYHSSLTREEAERKLYSGAQTDGKFLLRPRKEQGTYALSLIYGKTVYHYLISQDKAGKYCIPEGTKFDTLWQLVEYLKLKADGLIYCLKEACPNSSASNASGGGSCSRAARGTIGARRTGQPLKEDPSAVPVFSVDYGELDFQWREKTPEPPVPCVPEQTEYATIVFPSGMGTSSPARRGSADGPRSAQPLRPEDGHCSWPL		104	110	81	40
